Data reported in PMC11222974, “The effect of ADAMTS13 on graft‐versus‐host disease” (Journal of Cellular and Molecular Medicine, 2024).

What was measured:
integrin αL chain = integrin αL chain (UniProt P20701); experiment: SPR; Biacore 3000, 25°C; integrin αL amine-coupled to CM5 (~500 RU), soluble VWF or VWF-A2 flowed over at 30 μL/min in TBSTG (25 mM Tris pH 7.5, 150 mM NaCl, 0.05% Tween, 2% glycerol); apparent
[1] = target: T1, factor VIII‐free Von Willebrand factor (human, UniProt P04275 764-2813); experiment: SPR; Biacore 3000, 25°C; factor VIII-free VWF amine-coupled to CM5 (~3000 RU after TCEP), αL flowed over at 30 μL/min in TBSTG (25 mM Tris pH 7.5, 150 mM NaCl, 0.05% Tween, 2% glycerol); two-state binding model; apparent; conditions: both partners purified
T1 construct: Von Willebrand factor, human, factor VIII-free; multimeric; molar concentration counted with a monomeric MW of 260 kDa; Multimeric protein; On the SPR chip it was treated with 10 mM TCEP after coupling; also called VWF; recombinant human factor VIII‐free VWF; source: bought: Haematologic Technologies / Prolytix, catalogue HCVWF‐0191

For “recombinant VWF‐A2 protein (domain or fragment)”, the Kd (integrin αL chain) was 94 nM, the ka1 (integrin αL chain) was 140000 M⁻¹ s⁻¹ and the kd1 (integrin αL chain) was 0.013 s⁻¹.

B1: integrin αL chain (receptor, UniProt P20701 26-1090, looked up)
chain: YNLDVRGARSFSPPRAGRHFGYRVLQVGNGVIVGAPGEGNSTGSLYQCQSGTGHCLPVTLRGSNYTSKYLGMTLATDPTDGSILACDPGLSRTCDQNTYLSGLCYLFRQNLQGPMLQGRPGFQECIKGNVDLVFLFDGSMSLQPDEFQKILDFMKDVMKKLSNTSYQFAAVQFSTSYKTEFDFSDYVKRKDPDALLKHVKHMLLLTNTFGAINYVATEVFREELGARPDATKVLIIITDGEATDSGNIDAAKDIIRYIIGIGKHFQTKESQETLHKFASKPASEFVKILDTFEKLKDLFTELQKKIYVIEGTSKQDLTSFNMELSSSGISADLSRGHAVVGAVGAKDWAGGFLDLKADLQDDTFIGNEPLTPEVRAGYLGYTVTWLPSRQKTSLLASGAPRYQHMGRVLLFQEPQGGGHWSQVQTIHGTQIGSYFGGELCGVDVDQDGETELLLIGAPLFYGEQRGGRVFIYQRRQLGFEEVSELQGDPGYPLGRFGEAITALTDINGDGLVDVAVGAPLEEQGAVYIFNGRHGGLSPQPSQRIEGTQVLSGIQWFGRSIHGVKDLEGDGLADVAVGAESQMIVLSSRPVVDMVTLMSFSPAEIPVHEVECSYSTSNKMKEGVNITICFQIKSLIPQFQGRLVANLTYTLQLDGHRTRRRGLFPGGRHELRRNIAVTTSMSCTDFSFHFPVCVQDLISPINVSLNFSLWEEEGTPRDQRAQGKDIPPILRPSLHSETWEIPFEKNCGEDKKCEANLRVSFSPARSRALRLTAFASLSVELSLSNLEEDAYWVQLDLHFPPGLSFRKVEMLKPHSQIPVSCEELPEESRLLSRALSCNVSSPIFKAGHSVALQMMFNTLVNSSWGDSVELHANVTCNNEDSDLLEDNSATTIIPILYPINILIQDQEDSTLYVSFTPKGPKIHQVKHMYQVRIQPSIHDHNIPTLEAVVGVPQPPSEGPITHQWSVQMEPPVPCHYEDLERLPDAAEPCLPGALFRCPVVFRQEILVQVIGTLELVGEIEASSMFSLCSSLSISFNSSKHFHLYGSNASLAQVVMKVDVVYEKQML
notes: integrin αL chain (CD11a), recombinant, Origene TP321297; αL chain alone, without β2, in the SPR experiments; In the functional rows this molecule stands for αLβ2 on Jurkat cells; also called aL; CD11a; source: bought: Origene, catalogue TP321297
With B1 the Kd [1] was 120 nM.
